Test results from the supplement of paper PMC7877785.
± gives the uncertainty stated by the source.

Test: self-splicing fitness, log relative to wild type (ln ratio); higher = more splicing; Tetrahymena group I intron in knt gene, E. coli kanamycin selection, DiMSum; sequences stand for … in CUCUCU…GGAGGGAAAAGUUAUCAGGCAUGCACCUGGUAGCUAGUCUUUAAACCAAUAGAUUGCAUCGGUUUAAAAGGCAAGACCGUCAAAUUGCGGGAAAGGGGUCAACAGCCGUUCAGUACCAAGUCUCAGGGGAAACUUUGAGAUGGCCUUGCAAAGGGUAUGGUAAUAAGCUGACGGACAUGGUCCUAACCACGCAGCCAAGUCCUAAGUCAACAGAUCUUCUGUUGAUAUGGAUGCAGUUCACAGACUAAAUGUCGGUCGGGGAAGAUGUAUUCUUCUCAUAAGAUAUAGUCGGACCUCUCCUUAAUGGGAGCUAGCGGAUGAAGUGAUGCAACACUGGAGCCGCUGGGAACUAAUUUGUAUGCGAAAGUAUAUUGAUUAGUUUUGGAGUACUCGUGGUCG
Method in brief: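 Pooled colonies went to amplicon sequencing on an Illumina HiSeq 2500 after six replicate transformations. The plates were LB agar with 100 μg/mL carbenicillin, 50 μM IPTG and 0.2% rhamnose, with or without 25 μg/mL kanamycin, incubated overnight at 37°C or 30°C. The E. coli BL21(DE3) library had all eight P1ex-region intron nucleotides randomised, the intron placed in the knt kanamycin-resistance gene on pET-22b(+). DiMSum fitness is the error-weighted combination of replicate fold changes, kanamycin against none, normalised to wild type.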

Sequence	self-splicing fitness (ln) (30 °C)	self-splicing fitness (ln) (37 °C)
CCUCAGCAAUAUUACGUGUA	-2.19 ± 0.13	-2.16 ± 0.15
AUUGAGCAAUAUUACGCAUA	-3 ± 0.21	-2.47 ± 0.24
UUAAAGCAAUAUUACGUAAA	-1.16 ± 0.12	-0.0909 ± 0.12
GUGCAGCAAUAUUACGAGGA	-3.01 ± 0.2	-1.74 ± 0.29
GAGUAGCAAUAUUACGGCAC	-0.661 ± 0.2	-0.256 ± 0.21
UGGCAGCAAUAUUACGACCC	0.0617 ± 0.19	-0.655 ± 0.18
AGGGAGCAAUAUUACGGAGG		-1.74 ± 0.43
GAGAAGCAAUAUUACGCCUA	-0.659 ± 0.15	-1.03 ± 0.14
UUCCAGCAAUAUUACGGACG	-0.4 ± 0.048	0.421 ± 0.077
AUCCAGCAAUAUUACGGCCU	-0.115 ± 0.065	0.0854 ± 0.081
UACGAGCAAUAUUACGAUGG	-2.85 ± 0.22	-2.29 ± 0.24
GCCAAGCAAUAUUACGACAG	-3.63 ± 0.2	-3.8 ± 0.39
CAACAGCAAUAUUACGCGAU	-5.11 ± 0.45	-2.63 ± 0.23
ACUGAGCAAUAUUACGCAGG	-3.15 ± 0.23	-1.14 ± 0.13
UCCUAGCAAUAUUACGCAAA	-2.95 ± 0.21	-1.48 ± 0.12
AAGCAGCAAUAUUACGUUAU	-2.38 ± 0.089	-1.21 ± 0.1
UACCAGCAAUAUUACGCGAU	-2.6 ± 0.17	-0.608 ± 0.15
GUGAAGCAAUAUUACGCGUG	-0.812 ± 0.057	-0.134 ± 0.061
GCCCAGCAAUAUUACGUCAA	-2.62 ± 0.1	-1.68 ± 0.097
CGCAAGCAAUAUUACGCGAC	-3.77 ± 0.39	-1.68 ± 0.18
CAGCAGCAAUAUUACGUGAC	-3.41 ± 0.24	-1.86 ± 0.19
GUACAGCAAUAUUACGCGAG	-1.73 ± 0.094	-1.85 ± 0.12
UAAAAGCAAUAUUACGGGGU	-3.96 ± 0.17	-3.21 ± 0.2
CCAUAGCAAUAUUACGCACG	-0.758 ± 0.081	-0.715 ± 0.1
CUAGAGCAAUAUUACGAGUU	-3.23 ± 0.31	-2.36 ± 0.3

Sequence	self-splicing fitness (ln) (30 °C)	self-splicing fitness (ln) (37 °C)
AUGAAGCAAUAUUACGGUCC	-0.305 ± 0.12	0.363 ± 0.14
UAGAAGCAAUAUUACGGGCU	-3.1 ± 0.23	-3.1 ± 0.26
GACGAGCAAUAUUACGUGCG	-2.7 ± 0.17	-0.259 ± 0.11
AUUAAGCAAUAUUACGGGCA	-0.791 ± 0.12	-0.507 ± 0.12
CUGCAGCAAUAUUACGGACA		-1.44 ± 0.28
ACAGAGCAAUAUUACGAGGA	-3.04 ± 0.21	-2.49 ± 0.23
GAAUAGCAAUAUUACGAGAA	-2.39 ± 0.46	-1.6 ± 0.38
UUGGAGCAAUAUUACGAUGC	-1.76 ± 0.28	
CCAGAGCAAUAUUACGGACG	-1.73 ± 0.069	-0.584 ± 0.085
ACGGAGCAAUAUUACGUGAU	-3.47 ± 0.19	-1.32 ± 0.2
CCAUAGCAAUAUUACGAUAU	-3.76 ± 0.2	-2.97 ± 0.19
UCUAAGCAAUAUUACGUGGA	-2.82 ± 0.19	-3.51 ± 0.39
AAUCAGCAAUAUUACGGGAG	-1.48 ± 0.054	-0.88 ± 0.068
AAAAAGCAAUAUUACGAUAA	-1.03 ± 0.074	-1.1 ± 0.093
CAAGAGCAAUAUUACGGCCG	-0.899 ± 0.13	-0.536 ± 0.17
UGCAAGCAAUAUUACGUCCA	-0.254 ± 0.047	0.213 ± 0.07
UCAGAGCAAUAUUACGUAUU	-3.31 ± 0.2	-3.08 ± 0.29
CCCGAGCAAUAUUACGGCCG	-4.1 ± 0.23	-3.14 ± 0.32
UAACAGCAAUAUUACGACAA	-0.503 ± 0.094	0.136 ± 0.096
GGCAAGCAAUAUUACGUUCG	-0.0493 ± 0.065	-0.196 ± 0.08
AUUGAGCAAUAUUACGGUAU	-2.06 ± 0.13	-1.59 ± 0.18
CUGCAGCAAUAUUACGGACG	-0.355 ± 0.14	0.179 ± 0.15
AGGAAGCAAUAUUACGAGAU	-4.23 ± 0.26	-1.1 ± 0.13
CGUAAGCAAUAUUACGGAGC	-4.17 ± 0.39	
CUCGAGCAAUAUUACGGCUG	-3.82 ± 0.42	-1.94 ± 0.29

Sequence	self-splicing fitness (ln) (30 °C)	self-splicing fitness (ln) (37 °C)
GUGAAGCAAUAUUACGGCUG	-0.541 ± 0.082	0.0938 ± 0.11
AGUCAGCAAUAUUACGGUGA	-1.87 ± 0.12	-0.192 ± 0.096
CUGAAGCAAUAUUACGUUUA	-3.97 ± 0.24	
AUGAAGCAAUAUUACGGCUG	0.352 ± 0.066	0.0954 ± 0.087
GUCGAGCAAUAUUACGGUGU	-1.98 ± 0.087	-1.14 ± 0.11
GAGUAGCAAUAUUACGUUAU	-2.9 ± 0.23	-2.12 ± 0.21
AUCUAGCAAUAUUACGAGUC	-4.11 ± 0.36	-2.19 ± 0.25
CGCGAGCAAUAUUACGGAGG	-3.29 ± 0.22	-1.41 ± 0.19
AUCGAGCAAUAUUACGUCAU	-2.35 ± 0.14	-1.65 ± 0.15
GAUGAGCAAUAUUACGGACG		-1.49 ± 0.26
AUUGAGCAAUAUUACGUUCG	-1.65 ± 0.13	-1.14 ± 0.14
GGAAAGCAAUAUUACGCGGU	-3.32 ± 0.13	-3.21 ± 0.2
CGAUAGCAAUAUUACGGCAC	-2.47 ± 0.33	-1.49 ± 0.31
GCAAAGCAAUAUUACGAUCC	-0.0105 ± 0.12	-0.518 ± 0.13
CCGGAGCAAUAUUACGGCGC		-0.565 ± 0.49
CACGAGCAAUAUUACGGCCC	-3.09 ± 0.28	-2.95 ± 0.36
CGCGAGCAAUAUUACGCAUU	-2.71 ± 0.18	-3.29 ± 0.35
AGUUAGCAAUAUUACGCCAA		-1.58 ± 0.43
AAGGAGCAAUAUUACGGGAA	-2.09 ± 0.2	-3.29 ± 0.24
CCGCAGCAAUAUUACGUCGU	-4.02 ± 0.17	-2.79 ± 0.15
GCCAAGCAAUAUUACGGACC	-3.32 ± 0.15	-0.612 ± 0.13
UUACAGCAAUAUUACGUAAC	-3.72 ± 0.18	-3.25 ± 0.24
UUACAGCAAUAUUACGUCAU	-3.77 ± 0.2	-1.18 ± 0.12
CCCAAGCAAUAUUACGGGUU	-2.98 ± 0.12	-2.9 ± 0.2
GUUUAGCAAUAUUACGACCU	-1.03 ± 0.11	-0.456 ± 0.14

Sequence	self-splicing fitness (ln) (30 °C)	self-splicing fitness (ln) (37 °C)
AAGUAGCAAUAUUACGCCUA	-0.227 ± 0.11	-0.477 ± 0.12
GGGUAGCAAUAUUACGGACG	-1.74 ± 0.13	-2.1 ± 0.2
CUACAGCAAUAUUACGAUAA	-3.02 ± 0.15	-1.49 ± 0.12
GGCUAGCAAUAUUACGUUUG	-2.86 ± 0.11	-1.45 ± 0.12
AUGCAGCAAUAUUACGUCUG	-3.64 ± 0.35	-0.405 ± 0.16
ACGCAGCAAUAUUACGAUCG	-0.15 ± 0.049	0.252 ± 0.071
UCCGAGCAAUAUUACGAAAC	-2.59 ± 0.27	-1.62 ± 0.28
CCCGAGCAAUAUUACGUUAA	-2.82 ± 0.2	-2.25 ± 0.16
AAUCAGCAAUAUUACGUCUC	-0.509 ± 0.091	-0.314 ± 0.093
UGAAAGCAAUAUUACGAUCU	-0.256 ± 0.083	0.425 ± 0.11
ACACAGCAAUAUUACGUCUU	-1.17 ± 0.046	0.012 ± 0.058
CAGUAGCAAUAUUACGUUCG	0.207 ± 0.07	0.209 ± 0.1
CACGAGCAAUAUUACGAGGG	-3.64 ± 0.25	-3.25 ± 0.33
CAUUAGCAAUAUUACGCCCU	-2.38 ± 0.22	-1.55 ± 0.24
AGCCAGCAAUAUUACGAUAC	-3.73 ± 0.14	-3.14 ± 0.14
UGGUAGCAAUAUUACGCGGU		-2.58 ± 0.45
CGACAGCAAUAUUACGAGCA	-2.11 ± 0.18	-1.26 ± 0.16
UCUAAGCAAUAUUACGCGCU	-4.34 ± 0.46	-1.6 ± 0.27
GGAGAGCAAUAUUACGGUUG	-2.38 ± 0.22	-2.05 ± 0.38
GCAAAGCAAUAUUACGCCAU	-2.9 ± 0.17	-1.6 ± 0.22
GCUAAGCAAUAUUACGAUAU	-0.896 ± 0.066	-0.164 ± 0.094
GUCGAGCAAUAUUACGGGUC	-2.68 ± 0.39	
CUGUAGCAAUAUUACGUAUA	-3.03 ± 0.4	-2.67 ± 0.28
